We go through two substances from patent US20260201327A1.

For the assay, the target named is CD40 in the antibody expressing cells (rabbit plasmablasts from peripheral blood) (rabbit). The experiment in a line: cell-based or functional assay.

Consider “Fc-CD40-L (human IgG1-Fc fragment linked to the 18 kDa rabbit CD40-L fragment) (Fc fusion)”, for which the B cell growth after 7 days, batch sort in BM1, Fc-CD40-L against LZ-CD40-L (18 kDa) (% higher than LZ-CD40-L (18 kDa)) was determined as 32; the B cell growth after 7 days, batch sort in BM1, cytokines + CD40-L construct 7.5 ug/ml, against the reference EL4-B5 + TSN (% more than reference) is 43; the cell growth after 7 days, batch sort in BM1, cytokines + Fc-CD40-L 7.5 ug/ml (#4) against the reference TSN + EL4-B5 (% higher than reference) turned out to be 23; the cell growth after 7 days, batch sort in BM2, 2.5 ug/ml Fc-CD40-L (#12) against 7.5 ug/ml (#10) was 1.4 times lower. Moreover, the cell growth after 7 days, batch sort in BM2, 5.0 ug/ml Fc-CD40-L (#11) against 7.5 ug/ml (#10) was 1.1 times lower; the cell growth after 7 days, batch sort in BM2, cytokines + 2.5 ug/ml Fc-CD40-L (#12) against the reference #9 (% lower than reference) was 27; the cell growth after 7 days, batch sort in BM2, cytokines + 5.0 ug/ml Fc-CD40-L (#11) against the reference #9 (% lower than reference) is 5; the cell growth after 7 days, batch sort in BM2, cytokines + 7.5 ug/ml Fc-CD40-L (#10) against the reference TSN + EL4-B5 (#9) (% higher than reference) amounted to 6.
As for LZ-CD40-L EctoD (ligand), the B cell growth after 7 days, batch sort in BM1, cytokines + CD40-L construct 7.5 ug/ml, against the reference EL4-B5 + TSN (% of reference) is 68; the DoE parameter estimate for plasmablast proliferation (cell number after 7 days, 50 cells per well, feeder cell and TSN replacement) was 139.
